Data on 8 sequences can be found in the supplement of paper PMC5998384.

Series [1] concerns HeLa Kyoto. Kind of series: thermal stability score vs G1/S (z-score of summed log2 fold changes over temperatures); higher = more thermally stable than in G1/S.
Series [2] relates to HeLa Kyoto. The series is described as follows: melting temperature (median over replicates), in situ; higher = more thermally stable.
For series [3], the system named is HeLa Kyoto. Kind of series: solubility change mitosis vs G1/S (difference of NP-40 vs SDS log2 ratios) (log2 ratio difference); higher = more soluble in mitosis.
Series [4] concerns HeLa Kyoto. Kind of series: solubility in G1/S (NP-40 vs SDS abundance) (log2 ratio); higher = more soluble. The conditions noted are these: cell cycle stage: G1/S.
The mark [5] stands for this setting: cell cycle stage: early G1 (4.5 h after nocodazole release).
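Wherever melting temperature (median over replicates), in situ is given: HeLa Kyoto cells synchronized by double thymidine or nocodazole block, proteins quantified by TMT10plex mass spectrometry, three independent biological replicates.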
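Wherever solubility change mitosis vs G1/S (difference of NP-40 vs SDS log2 ratios) is given: synchronized HeLa Kyoto cells (double thymidine block for G1/S, nocodazole release for mitosis), protein amounts in NP-40 versus SDS lysates quantified by mass spectrometry, three biological replicates.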
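Wherever solubility in G1/S (NP-40 vs SDS abundance) is given: HeLa Kyoto cells arrested at G1/S by double thymidine block, proteins quantified by TMT10plex mass spectrometry in mild NP-40 versus SDS extracts, three biological replicates.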
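Wherever thermal stability score vs G1/S (z-score of summed log2 fold changes over temperatures) is given: synchronized HeLa Kyoto cells, proteins quantified by TMT10plex mass spectrometry, three biological replicates, mitosis taken 0.5 h after nocodazole release, G1/S directly after double thymidine block.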

As to “MDSKESLTPGREENPSSVLAQERGDVMDFYKTLRGGATVKVSASSPSLAVASQSDSKQRRLLVDFPKGSVSNAQQPDLSKAVSLSMGLYMGETETKVMGNDLGFPQQGQISLSSGETDLKLLEESIANLNRSTSVPENPKSSASTAVSAAPTEKEFPKTHSDVSSEQQHLKGQTGTNGGNVKLYTTDQSTFDILQDLEFSSGSPGKETNESPWRSDLLIDENCLLSPLAGEDDSFLLEGNSNEDCKPLILPDTKPKIKDNGDLVLSSPSNVTLPQVKTEKEDFIELCTPGVIKQEKLGTVYCQASFPGANIIGNKMSAISVHGVSTSGGQMYHYDMNTASLSQQQDQKPIFNVIPPIPVGSENWNRCQGSGDDNLTSLGTLNFPGRTVFSNGYSSPSMRPDVSSPPSSSSTATTGPPPKLCLVCSDEASGCHYGVLTCGSCKVFFKRAVEGQHNYLCAGRNDCIIDKIRRKNCPACRYRKCLQAGMNLEARKTKKKIKGIQQATTGVSQETSENPGNKTIVPATLPQLTPTLVSLLEVIEPEVLYAGYDSSVPDSTWRIMTTLNMLGGRQVIAAVKWAKAIPGFRNLHLDDQMTLLQYSWMFLMAFALGWRSYRQSSANLLCFAPDLIINEQRMTLPCMYDQCKHMLYVSSELHRLQVSYEEYLCMKTLLLLSSVPKDGLKSQELFDEIRMTYIKELGKAIVKREGNSSQNWQRFYQLTKLLDSMHEVVENLLNYCFQTFLDKTMSIEFPEMLAEIITNQIPKYSNGNIKKLLFHQK [NR3C1]”, the results for the thermal stability score in the series with HeLa Kyoto [1] (setting [5]) and in the series on HeLa Kyoto [1] (cell cycle stage: mitosis) were 0.508 and 1.98, respectively. Moreover, the melting temperature in the series on HeLa Kyoto [2] (cell cycle stage: G1/S) turned out to be 48.2 °C; with HeLa Kyoto [2] (cell cycle stage: mitosis), 49.3 °C. Besides, the “solubility change mitosis (log2)” value in the series on HeLa Kyoto [3] is -0.168. Moreover, the “solubility in G1/S (log2)” value in the series with HeLa Kyoto [4] was found to be 0.0188.

As to “MDSRLQEIRERQKLRRQLLAQQLGAESADSIGAVLNSKDEQREIAETRETCRASYDTSAPNAKRKYLDEGETDEDKMEEYKDELEMQQDEENLPYEEEIYKDSSTFLKGTQSLNPHNDYCQHFVDTGHRPQNFIRDVGLADRFEEYPKLRELIRLKDELIAKSNTPPMYLQADIEAFDIRELTPKFDVILLEPPLEEYYRETGITANEKCWTWDDIMKLEIDEIAAPRSFIFLWCGSGEGLDLGRVCLRKWGYRRCEDICWIKTNKNNPGKTKTLDPKAVFQRTKEHCLMGIKGTVKRSTDGDFIHANVDIDLIITEEPEIGNIEKPVEIFHIIEHFCLGRRRLHLFGRDSTIRPGWLTVGPTLTNSNYNAETYASYFSAPNSYLTGCTEEIERLRPKSPPPKSKSDRGGGAPRGGGRGGTSAGRGRERNRSNFRGERGGFRGGRGGAHRGGFPPR [METTL14]”, the figures for the thermal stability score in the series on HeLa Kyoto [1] (setting [5]) and in the series with HeLa Kyoto [1] (cell cycle stage: mitosis) were -0.705 and 0.141, respectively. Besides, the melting temperature with HeLa Kyoto [2] (cell cycle stage: G1/S) came to 52.3 °C; with HeLa Kyoto [2] (cell cycle stage: mitosis) it was 53.4 °C. For the same sequence, in the series with HeLa Kyoto [3], the “solubility change mitosis (log2)” value is -0.118. For the same sequence, in the series on HeLa Kyoto [4], the “solubility in G1/S (log2)” value was determined as 0.0131.

As for “MDTGVIEGGLNVTLTIRLLMHGKEVGSIIGKKGESVKKMREESGARINISEGNCPERIITLAGPTNAIFKAFAMIIDKLEEDISSSMTNSTAASRPPVTLRLVVPASQCGSLIGKGGCKIKEIRESTGAQVQVAGDMLPNSTERAITIAGIPQSIIECVKQICVVMLETLSQSPPKGVTIPYRPKPSSSPVIFAGGQDRYSTGSDSASFPHTTPSMCLNPDLEGPPLEAYTIQGQYAIPQPDLTKLHQLAMQQSHFPMTHGNTGFSGIESSSPEVKGYWGLDASAQTTSHELTIPNDLIGCIIGRQGAKINEIRQMSGAQIKIANPVEGSTDRQVTITGSAASISLAQYLINVRLSSETGGMGSS [PCBP2]”, the results for the thermal stability score in the series on HeLa Kyoto [1] (setting [5]) and with HeLa Kyoto [1] (cell cycle stage: mitosis) were 1.75 and 7.6, respectively. Also, the melting temperature in the series on HeLa Kyoto [2] (cell cycle stage: G1/S) was found to be 47.9 °C; in the series with HeLa Kyoto [2] (cell cycle stage: mitosis) it was 49.5 °C. The “solubility change mitosis (log2)” value with HeLa Kyoto [3] was -0.136. Moreover, in the series on HeLa Kyoto [4], the “solubility in G1/S (log2)” value was determined as 0.222.

Regarding “MDTMMLNVRNLFEQLVRRVEILSEGNEVQFIQLAKDFEDFRKKWQRTDHELGKYKDLLMKAETERSALDVKLKHARNQVDVEIKRRQRAEADCEKLERQIQLIREMLMCDTSGSIQLSEEQKSALAFLNRGQPSSSNAGNKRLSTIDESGSILSDISFDKTDESLDWDSSLVKTFKLKKREKRRSTSRQFVDGPPGPVKKTRSIGSAVDQGNESIVAKTTVTVPNDGGPIEAVSTIETVPYWTRSRRKTGTLQPWNSDSTLNSRQLEPRTETDSVGTPQSNGGMRLHDFVSKTVIKPESCVPCGKRIKFGKLSLKCRDCRVVSHPECRDRCPLPCIPTLIGTPVKIGEGMLADFVSQTSPMIPSIVVHCVNEIEQRGLTETGLYRISGCDRTVKELKEKFLRVKTVPLLSKVDDIHAICSLLKDFLRNLKEPLLTFRLNRAFMEAAEITDEDNSIAAMYQAVGELPQANRDTLAFLMIHLQRVAQSPHTKMDVANLAKVFGPTIVAHAVPNPDPVTMLQDIKRQPKVVERLLSLPLEYWSQFMMVEQENIDPLHVIENSNAFSTPQTPDIKVSLLGPVTTPEHQLLKTPSSSSLSQRVRSTLTKNTPRFGSKSKSATNLGRQGNFFASPMLK [RACGAP1]”, the figures for the thermal stability score in the series with HeLa Kyoto [1] (setting [5]) and with HeLa Kyoto [1] (cell cycle stage: mitosis) were 1.13 and 1.61, respectively. The values for the melting temperature in the series on HeLa Kyoto [2] (cell cycle stage: G1/S) and in the series on HeLa Kyoto [2] (cell cycle stage: mitosis) were 48.1 °C and 49.1 °C, respectively. The “solubility change mitosis (log2)” value in the series with HeLa Kyoto [3] stood at 0.141. Moreover, the “solubility in G1/S (log2)” value in the series on HeLa Kyoto [4] is -0.106.

As for “MDVAESPERDPHSPEDEEQPQGLSDDDILRDSGSDQDLDGAGVRASDLEDEESAARGPSQEEEDNHSDEEDRASEPKSQDQDSEVNELSRGPTSSPCEEEGDEGEEDRTSDLRDEASSVTRELDEHELDYDEEVPEEPAPAVQEDEAEKAGAEDDEEKGEGTPREEGKAGVQSVGEKESLEAAKEKKKEDDDGEIDDGEIDDDDLEEGEVKDPSDRKVRPRPTCRFFMKGNCTWGMNCRFIHPGVNDKGNYSLITKADPFPPNGAPPLGPHPLMPANPWGGPVVDEILPPPPPEPPTESAWERGLRHAKEVLKKATIRKEQEPDFEEKRFTVTIGEDEREFDKENEVFRDWNSRIPRDVRDTVLEPYADPYYDYEIERFWRGGQYENFRVQYTETEPYHNYRERERERERENRQRERERERERDRERERRQRERERERERERDKERQRRKEEWERERAKRDEKDRQHRDRDREKEREKEKGKPKPRSPQPPSRQAEPPKKEAATTGPQVKRADEWKDPWRRSKSPKKKLGVSVSPSRARRRRKTSASSASASNSSRSSSRSSSYSGSGSSRSRSRSSSYSSYSSRSSRHSSFSGSRSRSRSFSSSPSPSPTPSPHRPSIRTKGEPAPPPGKAGEKSVKKPAPPPAPPQATKTTAPVPEPTKPGDPREARRKERPARTPPRRRTLSGSGSGSGSSYSGSSSRSRSLSVSSVSSVSSATSSSSSAHSVDSEDMYADLASPVSSASSRSPAPAQTRKEKGKSKKEDGVKEEKRKRDSSTQPPKSAKPPAGGKSSQQPSTPQQAPPGQPQQGTFVAHKEIKLTLLNKAADKGSRKRYEPSDKDRQSPPPAKRPNTSPDRGSRDRKSGGRLGSPKPERQRGQNSKAPAAPADRKRQLSPQSKSSSKVTSVPGKASDPGAASTKSGKASTLSRREELLKQLKAVEDAIARKRAKIPGKA [ZC3H18]”, the figures for the thermal stability score in the series on HeLa Kyoto [1] (setting [5]) and in the series with HeLa Kyoto [1] (cell cycle stage: mitosis) were 7.23 and 11.9, respectively. Also, the melting temperature was found to be 48.7 °C in the series on HeLa Kyoto [2] (cell cycle stage: G1/S) and 51.3 °C with HeLa Kyoto [2] (cell cycle stage: mitosis). In addition, in the series on HeLa Kyoto [3], the “solubility change mitosis (log2)” value came to 0.144. In addition, the “solubility in G1/S (log2)” value in the series with HeLa Kyoto [4] is -0.653.

“MDVENEQILNVNPADPDNLSDSLFSGDEENAGTEEIKNEINGNWISASSINEARINAKAKRRLRKNSSRDSGRGDSVSDSGSDALRSGLTVPTSPKGRLLDRRSRSGKGRGLPKKGGAGGKGVWGTPGQVYDVEEVDVKDPNYDDDQENCVYETVVLPLDERAFEKTLTPIIQEYFEHGDTNEVAEMLRDLNLGEMKSGVPVLAVSLALEGKASHREMTSKLLSDLCGTVMSTTDVEKSFDKLLKDLPELALDTPRAPQLVGQFIARAVGDGILCNTYIDSYKGTVDCVQARAALDKATVLLSMSKGGKRKDSVWGSGGGQQSVNHLVKEIDMLLKEYLLSGDISEAEHCLKELEVPHFHHELVYEAIIMVLESTGESTFKMILDLLKSLWKSSTITVDQMKRGYERIYNEIPDINLDVPHSYSVLERFVEECFQAGIISKQLRDLCPSRGRKRFVSEGDGGRLKPESY [PDCD4]”: the thermal stability score in the series on HeLa Kyoto [1] (setting [5]) came to 1.91; in the series on HeLa Kyoto [1] (cell cycle stage: mitosis) it was 4.21. This sequence also had a melting temperature in the series on HeLa Kyoto [2] (cell cycle stage: G1/S) of 48.8 °C. For the same sequence, in the series with HeLa Kyoto [3], the “solubility change mitosis (log2)” value is -0.495. In the series on HeLa Kyoto [4], the “solubility in G1/S (log2)” value was determined as 0.349.

Consider “MDVGELLSYQPNRGTKRPRDDEEEEQKMRRKQTGTRERGRYREEEMTVVEEADDDKKRLLQIIDRDGEEEEEEEEPLDESSVKKMILTFEKRSYKNQELRIKFPDNPEKFMESELDLNDIIQEMHVVATMPDLYHLLVELNAVQSLLGLLGHDNTDVSIAVVDLLQELTDIDTLHESEEGAEVLIDALVDGQVVALLVQNLERLDESVKEEADGVHNTLAIVENMAEFRPEMCTEGAQQGLLQWLLKRLKAKMPFDANKLYCSEVLAILLQDNDENRELLGELDGIDVLLQQLSVFKRHNPSTAEEQEMMENLFDSLCSCLMLSSNRERFLKGEGLQLMNLMLREKKISRSSALKVLDHAMIGPEGTDNCHKFVDILGLRTIFPLFMKSPRKIKKVGTTEKEHEEHVCSILASLLRNLRGQQRTRLLNKFTENDSEKVDRLMELHFKYLGAMQVADKKIEGEKHDMVRRGEIIDNDTEEEFYLRRLDAGLFVLQHICYIMAEICNANVPQIRQRVHQILNMRGSSIKIVRHIIKEYAENIGDGRSPEFRENEQKRILGLLENF [CTNNBL1]”, for which the thermal stability score with HeLa Kyoto [1] (setting [5]) was 3.96; with HeLa Kyoto [1] (cell cycle stage: mitosis), 7.66. The melting temperature in the series with HeLa Kyoto [2] (cell cycle stage: G1/S) was found to be 47.6 °C; in the series on HeLa Kyoto [2] (cell cycle stage: mitosis), 47.7 °C. In the series with HeLa Kyoto [3], the “solubility change mitosis (log2)” value is 0.207. Further, the “solubility in G1/S (log2)” value in the series on HeLa Kyoto [4] was -0.0781.

Consider “MDWLMGKSKAKPNGKKPAAEERKAYLEPEHTKARITDFQFKELVVLPREIDLNEWLASNTTTFFHHINLQYSTISEFCTGETCQTMAVCNTQYYWYDERGKKVKCTAPQYVDFVMSSVQKLVTDEDVFPTKYGREFPSSFESLVRKICRHLFHVLAHIYWAHFKETLALELHGHLNTLYVHFILFAREFNLLDPKETAIMDDLTEVLCSGAGGVHSGGSGDGAGSGGPGAQNHVKER [MOB2]”, for which the thermal stability score was determined as 0.797 in the series on HeLa Kyoto [1] (setting [5]) and 0.832 in the series on HeLa Kyoto [1] (cell cycle stage: mitosis). Also, the melting temperature with HeLa Kyoto [2] (cell cycle stage: G1/S) was found to be 50.1 °C. The “solubility change mitosis (log2)” value in the series on HeLa Kyoto [3] was 0.0638. Moreover, in the series on HeLa Kyoto [4], the “solubility in G1/S (log2)” value was -0.0333.
